Article PMC6738653, “The (p)ppGpp-binding GTPase Era promotes rRNA processing and cold adaptation in Staphylococcus aureus” (PLoS Genetics, 2019)

Experiments:
[1] = biological target: Era fused to the SB (small bit of luciferase) (S. aureus); assay: split reporter (BiFC, NanoBiT); split luciferase (SB and LB fusions from pAP118) in S. aureus LAC*; 100 ng/ml Atet for 90 min, normalised to OD600 0.1, Nano-Glo Luciferase Assay; positive only if increased over both negative controls
Era = biological target: T1, Era (Staphylococcus aureus, UniProt Q2FY06); assay: DRaCALA with […]-ppGpp; format: binding
T1 sequence (Q2FY06 1-299): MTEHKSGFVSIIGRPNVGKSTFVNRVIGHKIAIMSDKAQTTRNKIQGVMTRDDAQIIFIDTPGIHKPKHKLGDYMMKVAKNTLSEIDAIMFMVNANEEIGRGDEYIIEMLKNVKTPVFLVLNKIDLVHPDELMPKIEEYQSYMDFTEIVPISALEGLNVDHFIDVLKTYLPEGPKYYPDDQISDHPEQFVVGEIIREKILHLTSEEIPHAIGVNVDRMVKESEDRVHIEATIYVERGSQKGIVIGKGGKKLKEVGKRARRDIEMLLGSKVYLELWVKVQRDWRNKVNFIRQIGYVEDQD

Compound: full-length CshA fused to LB (large bit of luciferase) (natural protein)
- fold increase in luciferase activity upon co-expression [1]: 4 fold

Compound: Nc1nc2c(ncn2[C@@H]2O[C@H](COP(=O)(O)OP(=O)(O)O)[C@@H](OP(=O)(O)OP(=O)(O)O)[C@H]2O)c(=O)[nH]1 [ppGpp]
- Kd (Era): 3.1 ± 0.4 µM
